Measured values: paper doi:10.1101/2021.03.10.433854
pKd: −log10 of the molar value. “And” between values parts separate entries of the source, which are not always exact repeats. Equal values may be shown once. Read-outs that look alike come from different tables or passages of the source.

What was measured:
Experiment in all cases: SPR
[1] = biological target: catalytic domain of human AURKA (amino acids 122-430) (human)
[2] = biological target: catalytic domain of human AURKA (amino acids 122-430) (human); remark: listed apart in the source
[3] = biological target: catalytic domain of human AURKA (amino acids 122-430) (human); remark: listed apart in the source

“AURKA interacting region (AIR) of N-Myc (N-Myc residues 61-89) (from UniProt P04198 61-89) (peptide)” was tested, and the pKd [1] was 6.16 and 5.40, the pKd [2] was under 4.82 and the pKd [3] was 6.00. It also gave a koff [3] of 0.0659 s⁻¹ and a kon [3] of 63000 M⁻¹ s⁻¹.
